Measured values reported in article PMC9046217, “L-tyrosine-bound ThiH structure reveals C–C bond break differences within radical SAM aromatic amino acid lyases” (Nature Communications, 2022).

Experiments:
[1] = target: 2-iminoacetate synthase ThiH from Thermosinus carboxydivorans (Thermosinus carboxydivorans); experiment: SEC; preparative gel filtration, HiLoad 16/600 S200 prep-grade column, buffer B (50 mM Tris pH 8, 100 mM NaCl), anaerobic
[2] = target: T1, TcThiH (2-iminoacetate synthase ThiH) (Thermosinus carboxydivorans, UniProt A1HPQ5); experiment: X-ray crystal structure, […] Å; assay type: binding; details: with L-tyrosine, 5'-deoxyadenosine; bound to the [4Fe-4S] cluster; pH 6.5, anaerobic; SAM cleavage product mimic
T1 construct: gene TcarDRAFT_1903; full length, N-terminal Strep-tag kept (MWSHPQFEKA-SGTFYDVIEDYRHFDF...YKDWQAL, 377 residues printed; printed DNA encodes a His6 tag instead); E. coli BL21(DE3) with isc operon and metK; [4Fe-4S] reconstituted; monomer
T1 sequence (A1HPQ5 entry or part of it): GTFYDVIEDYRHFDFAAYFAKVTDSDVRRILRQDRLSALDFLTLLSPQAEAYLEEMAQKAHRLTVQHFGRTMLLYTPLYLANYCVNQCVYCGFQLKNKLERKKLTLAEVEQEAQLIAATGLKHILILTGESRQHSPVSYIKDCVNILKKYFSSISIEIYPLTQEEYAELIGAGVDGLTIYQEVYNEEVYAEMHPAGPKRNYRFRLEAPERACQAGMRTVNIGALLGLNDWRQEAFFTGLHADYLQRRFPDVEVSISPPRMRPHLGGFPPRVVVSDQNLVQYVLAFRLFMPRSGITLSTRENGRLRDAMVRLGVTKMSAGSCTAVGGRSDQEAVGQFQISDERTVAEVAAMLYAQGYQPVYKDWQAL

Row | stoichiometry N [1] | Compound | X-ray crystal structure, 1.27 Å [2]
1 | 2 | 2-iminoacetate synthase ThiH from Thermosinus carboxydivorans (enzyme) | 
2 |  | CSCC[C@H](N)C(=O)O [L-methionine] | L-methionine bound to the radical SAM [Fe4S4]-cluster and L-tyrosine (Fig. 2b)
